Sequences and labels used below:
B1: Ribonuclease, P00648 (parent)
chain: MMKMEGIALKKRLSWISVCLLVLVSAAGMLFSTAAKTETSSHKAHTEAQVINTFDGVADYLQTYHKLPDNYITKSEAQALGWVASKGNLADVAPGKSIGGDIFSNREGKLPGKSGRTWREADINYTSGFRNSDRILYSSDWLIYKTTDHYQTFTKIR

The series covers variants of B1. As to conditions: Bacillus amyloliquefaciens, GdnHCl, Hydrogen exchange, HCl 27.5 mM, reversible: yes, structure 1BNI, whole UniProt chain shown.

Regarding MMKMEGIALKKRLSWISVCLLVLVSAAGMLFSTAAKTETSSHKAHTEAQVINTFDGVADYLQTYHKLPDNYITKSEAQALGWVASKGNLADVAPGKSIGGDIFSNREGKLPGKSGRTWREADINYTSGFRNCDRILYSSDWLIYKTTDCYQTFTKIR [S132C H149C], the “ddG of mutation (higher = less stable)” value is -4.3 kcal/mol (pH 7.5, 25 °C, Imidazole 50 mM); -4.6 kcal/mol (pH 7.6, 37 °C, Imidazole 50 mM); -4.5 kcal/mol (pH 7.9, 37 °C, Tris 50 mM). The denaturant m value is, setting by setting: (pH 7.5, 25 °C, Imidazole 50 mM) 4.91 kcal/mol/M; (pH 7.6, 37 °C, Imidazole 50 mM) 4.91 kcal/mol/M; (pH 7.9, 37 °C, Tris 50 mM) 4.91 kcal/mol/M.
With MMKMEGIALKKRLSWISVCLLVLVSAAGMLFSTAAKTETSSHKAHTEAQVINTFDGVADYLQTYHKLPDNYITKSEAQALGWVASKGNLADVAPGKSIGGDIFSAREGKLPGKSGRTWREADINYTSGFRNSDRILYSSDWLIYKTTDHYQTFTKIR [N105A], where the note is “pH 6.8, 30 °C, Imidazole 50 mM”, the “ddG of mutation (higher = less stable)” value came to 1.8 kcal/mol and the denaturant m value was found to be 4.91 kcal/mol/M.
MMKMEGIALKKRLSWISVCLLVLVSAAGMLFSTAAKTETSSHKAHTEAQVINTFDGVADYLQTYHKLPDNYITKSEAQALGWVASKGNLCDVAPGKSIGGDIFSNREGKLPGKSGRTWREADINYTCGFRNSDRILYSSDWLIYKTTDHYQTFTKIR [A90C S127C]: the “ddG of mutation (higher = less stable)” value runs as follows: (pH 7.5, 25 °C, Imidazole 50 mM) -1.9 kcal/mol; (pH 7.6, 37 °C, Imidazole 50 mM) -1.9 kcal/mol; (pH 7.9, 37 °C, Tris 50 mM) -1.8 kcal/mol. For the same variant, the denaturant m value worked out at 4.91 kcal/mol/M (pH 7.5, 25 °C, Imidazole 50 mM); 4.91 kcal/mol/M (pH 7.6, 37 °C, Imidazole 50 mM); 4.91 kcal/mol/M (pH 7.9, 37 °C, Tris 50 mM).
On to MMKMEGIALKKRLSWISVCLLVLVSAAGMLFSTAAKTETSSHKAHTEAQVINTFDGVADYLQTYHKLPDNYITKSEAQALGWVASKGNLADVAPGKSIGGDIFSNREGKLPGKSGRTWREADINYTSGFRNSDRILYASDWLIYKTTDHYQTFTKIR [S138A], for which, for the setting “pH 6.8, 30 °C, Imidazole 50 mM”, the “ddG of mutation (higher = less stable)” value was 1.8 kcal/mol and the denaturant m value was 4.91 kcal/mol/M.

The values above are taken from FireProtDB (doi:10.1016/j.jmb.2003.08.024).
